Source: patent US11021532 (CENTIVAX, dated 2021)

B1: COVID19_P23_G11 (scFv, V domains shown)
VH: QVQLVQSGAEVKKPGASVKVSCKASGGTFRSTAISWVRQAPGQGLEWMGWMNPNSGNTGYAQKFQGRVTMTRDTSTSTVYMELSSLRSEDTAVYYCARAGYSSSSGYYYYGMDVWGKGTTVTVSS
VL: DIQMTQSPSSLSASVGDRVTITCRASQGISNNLNWYQQKPGKAPKLLIYAASSLQSGVPSRFSGSGSGTDFTLTISSLQPEDFATYYCQQYDTFPLTFGQGTKVEIKR
B2: COVID19_P23_G12 (scFv, V domains shown)
VH: QVQLVQSGAEVKKPGASVKVSCKASGYIFTSYPIHWVRQAPGQGLEWMGWMNPNSGNTGYAQKFQGRVTMTRDTSTSTVYMELSSLRSEDTAVYYCARDRGSYDTDAFDIWGQGTMVTVSS
VL: DIQMTQSPSSLSASVGDRVTITCRASQDISNYLNWYQQKPGKAPKLLIYAASNLQSGVPSRFSGSGSGTDFTLTISSLQPEDFATYYCQQANSFPSTFGQGTKLEIKR
B3: COVID19_P24_G06 (scFv, V domains shown)
VH: QVQLVQSGAEVKKPGASVKVSCKASGYTFTNYGISWVRQAPGQGLEWMGWISARNGNTNYAQKFQGRVTMTRDTSTSTVYMELSSLRSEDTAVYYCTTDPVLEWFGYSIWGQGTMVTVSS
VL: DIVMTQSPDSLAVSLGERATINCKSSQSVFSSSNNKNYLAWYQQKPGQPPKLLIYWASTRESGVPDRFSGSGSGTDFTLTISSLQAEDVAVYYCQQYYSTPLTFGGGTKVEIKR
B4: COVID19_P24_C01 (scFv, V domains shown)
VH: QVQLVQSGAEVKKPGASVKVSCKASGYTFTRYYIHWVRQAPGQGLEWMGIINPSGGSTTYAQKFQGRVTMTRDTSTSTVYMELSSLRSEDTAVYYCAKGAPHDYIWGSYRPDAFDIWGQGTMVTVSS
VL: DIQMTQSPSSLSASVGDRVTITCRASENIDSWLAWYQQKPGKAPKLLIYEASTLESGVPSRFSGSGSGTDFTLTISSLQPEDFATYYCHQYLSSPETFGQGTKVEIKR
B5: COVID19_P24_D08 (scFv, V domains shown)
VH: QVQLVQSGAEVKKPGASVKVSCKASGYTFTSYDINWVRQAPGQGLEWMGIIDPSGGSTSYAQKFQGRVTMTRDTSTSTVYMELSSLRSEDTAVYYCATVTPGYGMDVWGQGTTVTVSS
VL: DIQMTQSPSSLSASVGDRVTITCRASQTIYSYLNWYQQKPGKAPKLLIYDASNLETGVPSRFSGSGSGTDFTLTISSLQPEDFATYYCQQAISFPLTFGGGTKLEIKR

How the values were obtained:
[1] = biological target: SARS CoV-2 spike protein on pseudovirus (SARS-CoV-2, UniProt P0DTC2 14-1273); assay: cell-based or functional assay
[2] = biological target: T1, SARS-CoV-2 Receptor Binding Domain (RBD) protein (SARS-CoV-2); assay: SPR (Carterra LSA), scFv captured via anti-V5, RBD as analyte
[3] = biological target: T1, SARS-CoV-2 Receptor Binding Domain …; assay: SPR (Carterra LSA), scFv captured via anti-V5, RBD as analyte, 1:1 fit

Binder | IC50 [µg/mL] pseudotyped lenti neut [1] [µg/mL] | Kd [2] [pM] | Kd [3] [pM]
B1 | 0.26 |  | 
B2 | 15.9 | < 50000 | 370
B3 | 0.16 |  | 
B4 | 0.92 |  | 
B5 | 17 |  | 
